Where “and” joins values, the source holds several entries; their conditions need not be identical. Equal entries are not always repeated.
T1: full-length His-BAP1 (Bv-His-BAP1-FL-WT) (human, UniProt Q92560 1-729)
T1 construct: BAP1, human, full-length wild type; the SPR methods name 'Full-length His-BAP1'; also called full-length BAP1; pFastBacTHa-BAP1-FL-WT; source: Sf9 cells infected with baculovirus, purified (Ni-NTA, native conditions); not shown: His tag, N-terminal, kept
T1 sequence (looked up): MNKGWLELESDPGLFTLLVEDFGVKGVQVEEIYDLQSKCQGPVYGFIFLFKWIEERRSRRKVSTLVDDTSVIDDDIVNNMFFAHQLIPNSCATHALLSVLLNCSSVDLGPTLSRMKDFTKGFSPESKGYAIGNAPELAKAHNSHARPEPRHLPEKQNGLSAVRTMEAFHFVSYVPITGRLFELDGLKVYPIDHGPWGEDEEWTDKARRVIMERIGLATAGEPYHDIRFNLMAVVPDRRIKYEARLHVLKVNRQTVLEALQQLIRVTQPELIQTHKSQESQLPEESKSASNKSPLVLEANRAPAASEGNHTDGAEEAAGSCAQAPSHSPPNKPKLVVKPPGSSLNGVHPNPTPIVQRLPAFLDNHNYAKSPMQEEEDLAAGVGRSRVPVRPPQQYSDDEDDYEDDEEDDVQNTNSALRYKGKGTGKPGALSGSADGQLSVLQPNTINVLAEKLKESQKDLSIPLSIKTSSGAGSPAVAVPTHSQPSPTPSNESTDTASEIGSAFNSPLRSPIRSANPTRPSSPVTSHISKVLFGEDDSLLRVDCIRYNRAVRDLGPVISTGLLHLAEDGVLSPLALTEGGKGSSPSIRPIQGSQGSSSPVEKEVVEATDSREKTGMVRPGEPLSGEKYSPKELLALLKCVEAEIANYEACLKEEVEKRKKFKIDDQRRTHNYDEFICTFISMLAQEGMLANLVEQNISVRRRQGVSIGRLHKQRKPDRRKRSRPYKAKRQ

T2: full-length His-BAP1 (Bv-His-BAP1-FL-WT) (human, UniProt Q92560 1-729)
T2 chain: T1 sequence (looked up)

T3: GST-BAP1-ULD (human, UniProt Q92560 601-729)
T3 construct: BAP1, human, ULD domain; also called GST-ULD; pGEX-4T-1-BAP1-ULD; source: E. coli BL21 (DE3), purified (GST resin, native conditions)
T3 sequence (looked up): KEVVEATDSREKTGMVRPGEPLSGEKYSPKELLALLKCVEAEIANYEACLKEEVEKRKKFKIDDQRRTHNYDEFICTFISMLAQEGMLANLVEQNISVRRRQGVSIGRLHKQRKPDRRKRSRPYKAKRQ

B1: His-ULD/AB protein complex (pETDuet-1-His-BAP1-ULD+ASXL2-AB) (complex, human)
chain 1: T3 sequence (looked up)
chain 2: MKRTKCADIDVETPDSILVNTNLRALINKHTFSVLPGDCQQRLLLLLPEVDRQVGPDGLMKLNGSALNNEFFTSAAQGWKERLSEGEFTPEMQVRIRQEIEKEKKVEPWKEQFFESYYGQS
notes: BAP1, human, ULD domain; ASXL2, human, AB box; Complex formed beforehand by co-expression; used as one analyte in pull-down, SPR and Ub-AMC assays; also called ULD/AB complex; Duet-His-ULD/AB; source: E. coli Rosetta 2 (DE3) pLysS, co-expressed from pETDuet-1, purified (cobalt beads, Talon, native conditions)
B2: His-ASXL2-AB (261-381 aa) (domain or fragment, human, UniProt Q76L83 261-381, looked up)
chain: B1 chain 2
notes: ASXL2, human, AB box, residues 261-381 (pQE30-ASXL2-AB); also called His-AB; AB box
B3: GST-BAP1-UCH-WT (1-250 aa) (domain or fragment, human, UniProt Q92560 1-250, looked up)
chain: MNKGWLELESDPGLFTLLVEDFGVKGVQVEEIYDLQSKCQGPVYGFIFLFKWIEERRSRRKVSTLVDDTSVIDDDIVNNMFFAHQLIPNSCATHALLSVLLNCSSVDLGPTLSRMKDFTKGFSPESKGYAIGNAPELAKAHNSHARPEPRHLPEKQNGLSAVRTMEAFHFVSYVPITGRLFELDGLKVYPIDHGPWGEDEEWTDKARRVIMERIGLATAGEPYHDIRFNLMAVVPDRRIKYEARLHVLKV
notes: BAP1, human, ubiquitin C-terminal hydrolase (UCH) domain, residues 1-250 (pGEX-2TK-BAP1-UCH-WT); also called GST-UCH; pGEX-2TK-BAP1-UCH-WT; source: E. coli BL21 (DE3), purified (GST resin, native conditions)
B4: His-BAP1-ULD (601-729 aa) (domain or fragment, human, UniProt Q92560 601-729, looked up)
chain: T3 sequence (looked up)
notes: BAP1, human, UCH37-like domain (ULD), residues 601-729 (pQE30-BAP1-ULD); also called His-ULD; ULD domain

How the values were obtained:
[1] = target: T1, full-length His-BAP1 (Bv-His-BAP1-FL-WT); experiment: SPR; Biacore T200; full-length His-BAP1, GST-UCH or GST alone amine-coupled to a CM5 chip (~3000 RU), His-ULD/AB complex injected; 25 mM HEPES pH 7.4, 250 mM NaCl, 5 mM DTT, 0.05% Tween20; steady-state and kinetic one-site fits; conditions: both partners purified
[2] = target: T1, full-length His-BAP1 (Bv-His-BAP1-FL-WT); experiment: cell-based or functional assay
[3] = target: T2, full-length His-BAP1 (Bv-His-BAP1-FL-WT); experiment: SPR; steady-state equilibrium
[4] = target: T3, GST-BAP1-ULD; experiment: SPR; Biacore T200; GST-ULD captured by anti-GST antibody on a CM5 chip (400 RU), His-AB injected; 25 mM HEPES pH 7.4, 150 mM NaCl, 5 mM DTT, 0.05% Tween20; steady-state and kinetic one-site fits; conditions: both partners purified
[5] = target: B4; experiment: ITC; Microcal ITC 200; His-AB 77 µM in the cell, His-ULD 574 µM titrated; 50 mM potassium phosphate pH 7.5, 200 mM potassium chloride, 1 mM TCEP; duplicate; conditions: both partners purified
[6] = target: B1; experiment: SPR; Biacore T200; full-length His-BAP1, GST-UCH or GST alone amine-coupled to a CM5 chip (~3000 RU), His-ULD/AB complex injected; 25 mM HEPES pH 7.4, 250 mM NaCl, 5 mM DTT, 0.05% Tween20; steady-state and kinetic one-site fits; conditions: both partners purified
[7] = target: B2; experiment: ITC; Microcal ITC 200; His-AB 77 µM in the cell, His-ULD 574 µM titrated; 50 mM potassium phosphate pH 7.5, 200 mM potassium chloride, 1 mM TCEP; duplicate; conditions: both partners purified

B1
Kd [1]: 850 nM and 1910 nM | koff [1]: 0.033 s⁻¹ | kon [1]: 39000 M⁻¹ s⁻¹ | fold increase of BAP1 specific activity (100 nM Ub-AMC) with increasing concentrations of His-ULD/AB [2]: 4.5 fold | Kd [3]: 740 nM

B2
fold increase of the maximal velocity of BAP1 cleavage of Ub-AMC with increasing concentrations of ASXL2-AB [2]: 2.5 fold | Kd [4]: 134 nM and 67 nM | koff [4]: 0.0024 s⁻¹ | kon [4]: 38000 M⁻¹ s⁻¹ | Kd [5]: ~4260 nM

B3
koff [6]: 0.044 s⁻¹ | kon [6]: 19000 M⁻¹ s⁻¹

B4
dH [7]: -9.87 kcal/mol | stoichiometry N [7]: 1
